Data set [1] addresses T1, I-SceI homing endonuclease (expressed in yeast from GAL1-10 promoter) (UniProt P03882 P03882:1-235).
T1 sequence: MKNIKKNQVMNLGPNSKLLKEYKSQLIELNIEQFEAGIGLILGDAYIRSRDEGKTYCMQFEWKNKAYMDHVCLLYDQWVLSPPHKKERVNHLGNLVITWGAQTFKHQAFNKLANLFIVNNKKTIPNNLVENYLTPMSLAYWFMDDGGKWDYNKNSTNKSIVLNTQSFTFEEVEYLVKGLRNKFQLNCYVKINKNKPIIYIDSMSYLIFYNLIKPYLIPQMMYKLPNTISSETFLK
Kind of data set: cell_activity; gene correction over P1-r-P2.TRP5.40; I-SceI induced before transformation. Here is the method:
Briefly, 50 ml of yeast extract-peptone-lactic acid (YPLac) (lactic acid 2%), pH 5.8, or yeast extract-peptone-dextrose (YPD) liquid culture was inoculated about 24 h before transformation and incubated with vigorous shaking at 30° C. YPLac was used as a neutral carbon source so as not to induce I-SceI expression until plating the transformations to selective galactose-containing media. YPD was used to repress I-SceI expression until plating the transformations to selective glucose-containing media. Transformations were done with 1 nmol of total oligonucleotide DNA, with the exception of the PAGE-purified oligonucleotides in which transformations were done with 500 pmol of total oligonucleotide DNA. For the transformations testing to determine whether the aptamer was working in trans, two oligonucleotides were used, 500 pmol of each oligonucleotide, such that the combined total oligonucleotide DNA used was 1 nmol. Sequences of oligonucleotides used for repair can be found in Table 1. Cells from each transformation were diluted appropriately and plated to synthetic complete medium lacking the respective amino acid and containing 2% galactose for I-SceI induction, 2 or 0.2% galactose for HO induction or 2% glucose for I-SceI or HO repression. […] Viability after transformation was calculated by plating to glucose-containing synthetic complete medium. […]

Data set [2] concerns the target T2, I-SceI homing endonuclease (expressed in HEK-293 from pSce) (UniProt P03882 P03882:1-235).
T2 sequence: T1 sequence
Kind of data set: cell_activity; RFP+ over C.Red.40, flow cytometry. The procedure: (§1) Protocols, 1:1412-1428 (2006)) 24 h before transfection. For transfections in HEK-293 cells, the plasmid DNA was used in the amount of 0.5 μg for the expression vector, as well as 0.5 μg for the targeted vector, and the repairing DNA oligonucleotide used was 1 μg, unless otherwise indicated. For the transfections with I-SceI digested pLDSLm, 0.5 m g of the linearized pLDSLm vector was used with 1 m g of repairing DNA oligonucleotide. Digestion of the pLDSLm vector was done using I-SceI (New England Biolabs, Ipswich, Mass., USA). Ten micrograms of plasmid pLDSLm was digested using 15 U I-SceI, 250 ng bovine serum albumin (BSA), 10×I-SceI buffer (New England Biolabs, Ipswich, Mass., USA) and water to a final volume of 50 μl. Digestions were done overnight at 37° C. In all transfection experiments, the oligonucleotides and the plasmid were diluted in DMEM without supplements, and then PEI was added, the solution was vortexed and added to the wells 10-15 min later. Red fluorescent cells were visualized by fluorescent microscopy using a Zeiss Observer A1 microscope and an AxioCam MRm camera (Zeiss, Thornwood, N.Y., USA). […] For certain transfections, wells of 24-well plates were seeded with 150,000 cells (on the day before transfection) and 5-8 days after transfection individual fluorescent cells per well were counted using a fluorescence microscope just before flow cytometry analysis. […]

In data set [3] the target is T2, I-SceI homing endonuclease (expressed …). Nature of the data set: cell_activity; RFP+ over C.Red.30, hand counts (4-fold by flow cytometry). The procedure: as §1
(In flow cytometry, cells or beads pass a laser one at a time.)

B1: P1-A7-P2.TRP5.40 (ssDNA)
DNA: CTTCTGCCCGCCTCCTTCCGCGGGCGCTGTTGACAGCGGTCAGGTGGATGGGATGGACGAGATAGGCGGACACTGGTTTTGATGAAGCTGTCGCGGATCCCACATTCTGGGAAG
In data set [1], B1 came in with an activity of 1.25 fold.

B2: A7.Red.40 (ssDNA)
DNA: GCGGGCGCTGTTGACAGCGGTCAGGTGGATGGGATGTGACCCAGGACTCCTCCCTGCAGGACGGCTGCTTCATCTA
Molecule B2 displayed an activity in data set [2] of 6 fold.

B3: A7.Red.30 (ssDNA)
DNA: GCGGGCGCTGTTGACAGCGGTCAGGTGGATGGGATGCAGGACTCCTCCCTGCAGGACGGCTGCTTC
Regarding B3, in data set [3], the activity is 16 fold.

Source of the values: patent US20160032292, “Aptamer-Guided Gene Targeting” (Georgia Tech Research Corporation, published 2016).
